Data on four molecules can be found in patent US20230406950A1 (LYVGEN BIOPHARMA, published 2023).

Assay [1] addresses T1, human CD137 expressed on cells (human, UniProt Q07011 24-255).
T1 construct: whole, on cells; also called 4-1BB; TNFRSF9
Nature of the assay: flow cytometry (FACS), MFI, CHO cells expressing human CD137. As for the experimental part: (§1) Exemplary anti-PD-1/CD137 bi-specific antibodies were analyzed by FACS for their binding properties to human PD-1 and/or human CD137 expressed on CHO cells. Briefly, cultured cells were harvested, counted and cell viability was evaluated using the Trypan Blue exclusion method. Viable cells were then adjusted to 2×10⁶ cells per mL in PBS containing 2% BSA. 100 μL of this cell suspension were further aliquoted per well into a V-bottom 96-well plate. […] After incubation for 2 hours at 4° C., cells were centrifuged (3 min, 1000× g), washed with 250 μL/well BSA-containing FACS Stain Buffer, resuspended and incubated for an additional 1 hour at 4° C. with 100 μL/well fluorochrome-conjugated anti-IgG antibody for detection of the bisepecific antibody. Cells were then washed with 250 μL/well BSA-containing FACS Stain Buffer, resuspended in 100 μL/well FACS Stain Buffer, acquired and analyzed using a FACS machine. Binding of the bispecific antibodies to human PD-1 or human CD137 expressing CHO cells were evaluated and the mean fluorescence intensity is plotted in histograms or dot plots.
(In flow cytometry, cells or beads pass a laser one at a time.)

Assay [2] has as its target T2, human PD-1 expressed on cells (human, UniProt Q15116 25-288).
T2 construct: whole, on cells; also called human PD-1 over-expressed on the CHO cells; Jurkat/NFkB-Luci/PD-1 cells
The assay is described as follows: flow cytometry (FACS), MFI, CHO cells expressing human PD-1. Here is the method:
as §1

For assay [3], the target named is T3, human CD40 expressed on CHO cells (human, UniProt P25942 21-277).
T3 construct: whole, on cells
The assay is described as follows: FACS on CHO cells expressing human CD40 (MFI). As for the experimental part:
as §1, with “Anti-CD40/CD137” for “Exemplary anti-PD-1/CD137”, “CD40” for “PD-1”, “1000×g),” for “1000× g),”

T1 sequence (Q07011 24-255): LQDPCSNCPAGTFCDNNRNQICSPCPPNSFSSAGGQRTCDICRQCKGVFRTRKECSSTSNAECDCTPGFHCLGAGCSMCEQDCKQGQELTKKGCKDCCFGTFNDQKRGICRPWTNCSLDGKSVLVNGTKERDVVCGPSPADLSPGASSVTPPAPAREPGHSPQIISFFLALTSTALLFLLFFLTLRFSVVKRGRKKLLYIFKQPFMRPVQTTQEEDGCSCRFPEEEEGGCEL
T3 sequence (P25942 21-277): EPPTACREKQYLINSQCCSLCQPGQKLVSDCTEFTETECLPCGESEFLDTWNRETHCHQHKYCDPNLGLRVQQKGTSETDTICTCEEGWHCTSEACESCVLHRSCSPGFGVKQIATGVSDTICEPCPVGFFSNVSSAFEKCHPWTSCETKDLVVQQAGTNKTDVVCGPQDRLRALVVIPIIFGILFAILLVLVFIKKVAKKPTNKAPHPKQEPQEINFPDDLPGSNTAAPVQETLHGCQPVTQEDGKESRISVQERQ
T2 sequence (Q15116 25-288): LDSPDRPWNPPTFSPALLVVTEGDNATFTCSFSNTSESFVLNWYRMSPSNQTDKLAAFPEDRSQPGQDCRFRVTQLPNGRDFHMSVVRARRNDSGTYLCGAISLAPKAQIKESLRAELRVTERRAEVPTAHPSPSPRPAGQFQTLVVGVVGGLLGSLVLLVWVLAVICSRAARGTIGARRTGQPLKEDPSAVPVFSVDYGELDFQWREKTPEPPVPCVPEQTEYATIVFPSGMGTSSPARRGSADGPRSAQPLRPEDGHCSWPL

B1: Ly461 (bispecific antibody, human IgG1, kappa)
heavy: QVQLVQSGAEVKKPGASVKVSCKASGYTFAGFEMHWVRQAPGQGLEWMGAIDPKTGGTDYNQKFKDRVTMTRDTSISTAYMELSRLRSDDTAVYYCARDLGYFDVWGQGTLVTVSSASTKGPSVFPLAPSSKSTSGGTAALGCLVKDYFPEPVTVSWNSGALTSGVHTFPAVLQSSGLYSLSSVVTVPSSSLGTQTYICNVNHKPSNTKVDKKVEPKSCDKTHTCPPCPAPELLGPSVFLFPPKPKDTLMISRTPEVTCVVVDVSHEDPEVKFNWYVDGVEVHNAKTKPREEQYNSTYRVVSVLTVLHQDWLNGKEYKCKVSNKALPAPIEKTISKAKGQPREPQVYTLPPSREEMTKNQVSLTCLVKGFYPSDIAVEWESNGQPENNYKTTPPVLDSDGSFFLYSKLTVDKSRWQQGNVFSCSVMHEALHNHYTQKSLSLSPGGGGGSGGGGSGGGGSGGGGSNIQMTQSPSSLSASVGDRVTITCKAGQNVNNYLAWYQQKPGKAPKVLIFNANSLQTGVPSRFSGSGSGTDFTLTISSLQPEDFATYYCQQYNSWPTFGGGTKVEIKRTVAAPSVFIFPPSDEQLKSGTASVVCLLNNFYPREAKVQWKVDNALQSGNSQESVTEQDSKDSTYSLSSTLTLSKADYEKHKVYACEVTHQGLSSPVTKSFNRGEC
light: DIQMTQSPSSLSASVGDRVTITCRASQDIRSNLNWYQQKPGGAVKLLIYYTSRLHSGVPSRFSGSGSGTDYTLTISSLQPEDFATYFCQQSEKLPRTFGGGTKVEIRRTVAAPSVFIFPPSDEQLKSGTASVVCLLNNFYPREAKVQWKVDNALQSGNSQESVTEQDSKDSTYSLSSTLTLSKADYEKHKVYACEVTHQGLSSPVTKSFNRGEC
chain: QVTLKESGPALVKPTQTLTLTCTFSGFSLSTSGTCVSWIRQPPGKALEWLATICWEDSKGYNPSLKSRLTISKDTSKNQAVLTMTNMDPVDTATYYCARREDSGYFWFPYWGQGTLVTVSSASTKGPSVFPLAPSSKSTSGGTAALGCLVKDYFPEPVTVSWNSGALTSGVHTFPAVLQSSGLYSLSSVVTVPSSSLGTQTYICNVNHKPSNTKVDKKVEPKSCDK
notes: Three-chain format: Ly1630 heavy chain fused to Ly516 light chain; Ly1630 light chain; Ly516 VH-CH1
Usually EC50 (read off the curve) stands for the midpoint of the concentration-response curve. As to B1, in assay [1], the “EC50 (read off the curve)” value is around 0.1 µg/mL.

B2: Ly515 (bispecific antibody, human IgG2, kappa)
heavy: QVQLVQSGAEVKKPGASVKVSCKASGYTFAGFEMHWVRQAPGQGLEWMGAIDPKTGGTDYNQKFKDRVTMTRDTSISTAYMELSRLRSDDTAVYYCARDLGYFDVWGQGTLVTVSSASTKGPSVFPLAPCSRSTSESTAALGCLVKDYFPEPVTVSWNSGALTSGVHTFPAVLQSSGLYSLSSVVTVPSSNFGTQTYTCNVDHKPSNTKVDKTVERKCCVECPPCPAPPVAPSVFLFPPKPKDTLMISRTPEVTCVVVDVSHEDPEVQFNWYVDGVEVHNAKTKPREEQFNSTFRVVSVLTVVHQDWLNGKEYKCKVSNKGLPAPIEKTISKTKGQPREPQVYTLPPSREEMTKNQVSLTCLVKGFYPSDIAVEWESNGQPENNYKTTPPMLDSDGSFFLYSKLTVDKSRWQQGNVFSCSVMHEALHNHYTQKSLSLSPGGGGGSGGGGSGGGGSGGGGSNIQMTQSPSSLSASVGDRVTITCKAGQNVNNYLAWYQQKPGKAPKVLIFNANSLQTGVPSRFSGSGSGTDFTLTISSLQPEDFATYYCQQYNSWPTFGGGTKVEIKRTVAAPSVFIFPPSDEQLKSGTASVVCLLNNFYPREAKVQWKVDNALQSGNSQESVTEQDSKDSTYSLSSTLTLSKADYEKHKVYACEVTHQGLSSPVTKSFNRGEC
light: DIQMTQSPSSLSASVGDRVTITCRASQDIRSNLNWYQQKPGGAVKLLIYYTSRLHSGVPSRFSGSGSGTDYTLTISSLQPEDFATYFCQQSEKLPRTFGGGTKVEIRRTVAAPSVFIFPPSDEQLKSGTASVVCLLNNFYPREAKVQWKVDNALQSGNSQESVTEQDSKDSTYSLSSTLTLSKADYEKHKVYACEVTHQGLSSPVTKSFNRGEC
chain: QVTLKESGPALVKPTQTLTLTCTFSGFSLSTSGTCVSWIRQPPGKALEWLATICWEDSKGYNPSLKSRLTISKDTSKNQAVLTMTNMDPVDTATYYCARREDSGYFWFPYWGQGTLVTVSSASTKGPSVFPLAPSSKSTSGGTAALGCLVKDYFPEPVTVSWNSGALTSGVHTFPAVLQSSGLYSLSSVVTVPSSSLGTQTYICNVNHKPSNTKVDKKVEPKSCDK
notes: as for B1
On to B2, for which the “EC50 (read off the curve)” value in assay [1] was around 0.1 µg/mL.

B3: Ly514 (bispecific antibody, human IgG2, kappa)
heavy: QVTLKESGPALVKPTQTLTLTCTFSGFSLSTSGTCVSWIRQPPGKALEWLATICWEDSKGYNPSLKSRLTISKDTSKNQAVLTMTNMDPVDTATYYCARREDSGYFWFPYWGQGTLVTVSSASTKGPSVFPLAPCSRSTSESTAALGCLVKDYFPEPVTVSWNSGALTSGVHTFPAVLQSSGLYSLSSVVTVPSSNFGTQTYTCNVDHKPSNTKVDKTVERKCCVECPPCPAPPVAPSVFLFPPKPKDTLMISRTPEVTCVVVDVSHEDPEVQFNWYVDGVEVHNAKTKPREEQFNSTFRVVSVLTVVHQDWLNGKEYKCKVSNKGLPAPIEKTISKTKGQPREPQVYTLPPSREEMTKNQVSLTCLVKGFYPSDIAVEWESNGQPENNYKTTPPMLDSDGSFFLYSKLTVDKSRWQQGNVFSCSVMHEALHNHYTQKSLSLSPGGGGGSGGGGSGGGGSGGGGSDIQMTQSPSSLSASVGDRVTITCRASQDIRSNLNWYQQKPGGAVKLLIYYTSRLHSGVPSRFSGSGSGTDYTLTISSLQPEDFATYFCQQSEKLPRTFGGGTKVEIRRTVAAPSVFIFPPSDEQLKSGTASVVCLLNNFYPREAKVQWKVDNALQSGNSQESVTEQDSKDSTYSLSSTLTLSKADYEKHKVYACEVTHQGLSSPVTKSFNRGEC
light: NIQMTQSPSSLSASVGDRVTITCKAGQNVNNYLAWYQQKPGKAPKVLIFNANSLQTGVPSRFSGSGSGTDFTLTISSLQPEDFATYYCQQYNSWPTFGGGTKVEIKRTVAAPSVFIFPPSDEQLKSGTASVVCLLNNFYPREAKVQWKVDNALQSGNSQESVTEQDSKDSTYSLSSTLTLSKADYEKHKVYACEVTHQGLSSPVTKSFNRGEC
chain: QVQLVQSGAEVKKPGASVKVSCKASGYTFAGFEMHWVRQAPGQGLEWMGAIDPKTGGTDYNQKFKDRVTMTRDTSISTAYMELSRLRSDDTAVYYCARDLGYFDVWGQGTLVTVSSASTKGPSVFPLAPSSKSTSGGTAALGCLVKDYFPEPVTVSWNSGALTSGVHTFPAVLQSSGLYSLSSVVTVPSSSLGTQTYICNVNHKPSNTKVDKKVEPKSCDK
notes: Three-chain format: Ly516 heavy chain fused to Ly1630 light chain; Ly516 light chain; Ly1630 VH-CH1
In the case of B3, the entries for the “EC50 (read off the curve)” value in assay [2] and in assay [1] were around 0.2 µg/mL and around 0.5 µg/mL, respectively.

B4: Ly253-G2 (antibody, human IgG2, kappa, V domains shown)
VH: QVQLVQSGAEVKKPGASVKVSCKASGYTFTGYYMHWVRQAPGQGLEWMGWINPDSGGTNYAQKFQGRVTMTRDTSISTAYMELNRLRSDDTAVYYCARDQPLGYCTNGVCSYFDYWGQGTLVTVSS
VL: DIQMTQSPSSVSASVGDRVTITCRASQGIYSWLAWYQQKPGKAPNLLIYTASTLQSGVPSRFSGSGSGTDFTLTISSLQPEDFATYYCQQANIFPLTFGGGTKVEIKR
notes: also called anti-CD40 antibody
In the case of B4, the “EC50 (read off the curve)” value in assay [3] was around 0.09 µg/mL.
